Experiments:
[1] = biological target: T1, A. thaliana CP12-2 (AtCP12) (Arabidopsis thaliana, UniProt Q9LZP9 54-131, limits assumed); assay: yeast two-hybrid
T1 construct: also called AT3G62410; pGADT7_CP12
T1 sequence (looked up): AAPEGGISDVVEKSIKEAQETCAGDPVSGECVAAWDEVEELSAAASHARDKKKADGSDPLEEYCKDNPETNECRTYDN
Experimental: (§1) Competent yeast cells (Y2H Gold, Clontech) were prepared from a 50 ml culture grown in YPDA medium supplemented with kanamycin (50 μg ml⁻¹). Cells were washed with ddH2O and a lithium acetate/TE solution (100 mM LiAc, 10 mM Tris-HCl [pH 7.5], 1 mM EDTA) before re-suspending in lithium acetate/TE solution. Cells were then co-transformed with binding and activation domain vectors by mixing 50 μl of competent cells with 1 μg of each plasmid vector and a PEG solution (100 mM LiAc, 10 mM Tris-HCl [pH 7.5], 1 mM EDTA, 40% [v/v] PEG 4000). Cells were incubated at 30° C. for 30 min, then subjected to a heat shock of 42° C. for 20 min. The cells were centrifuged, re-suspended in 500 μl YPDA and incubated at 30° C. for ca 90 min, then centrifuged and washed in TE (10 mM Tris-HCl [pH 7.5], 1 mM EDTA). […] The following day 1 ml of culture was harvested, cell density (OD₆₀₀) measured, centrifuged and then diluted in TE to give a final OD₆₀₀ of 0.5 or 0.1.
(§2) Yeast cultures were then plated onto SD-L-W (yeast synthetic minimal media lacking leucine (L) and tryptophan (W)) and SD-L-W-H (yeast synthetic minimal media lacking L, W, and histidine(H)) (Anachem). […] These plates were then incubated for 3 days before assessing for presence or absence of growth, to perform a semi-quantitative yeast two-hybrid assay as in van Nues and Beggs (van Nues and Beggs, Genetics (2000) 157: 1451-1467). […]

[2] = biological target: T2, 1AAtMOD (α-helices, β-sheets and loop): A. thaliana SSU 1A with α-helices, β-sheets and βA-βB loop replaced … (Arabidopsis thaliana with parts of …); assay: yeast two-hybrid (FIG. 3C)
T2 construct: also called 1AAtMod (α-helices, β-sheet and loop); pGADT7_1AAtMOD(α-helices + β-sheets + loop)
T2 chain: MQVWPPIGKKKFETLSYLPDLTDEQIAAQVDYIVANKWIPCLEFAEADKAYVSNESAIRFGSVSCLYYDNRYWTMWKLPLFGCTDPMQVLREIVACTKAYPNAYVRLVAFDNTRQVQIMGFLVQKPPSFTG
Experimental: (§3) The following day 1 ml of culture was harvested, cell density (OD₆₀₀) measured, centrifuged and then diluted in TE to give a final OD₆₀₀ of 0.5 or 0.1.
(§4) Yeast cultures were then plated onto SD-L-W (yeast synthetic minimal media lacking leucine (L) and tryptophan (W)) and SD-L-W-H (yeast synthetic minimal media lacking L, W, and histidine(H)) (Anachem). Yeast expressing both binding and activation domain constructs was grown on SD-L-W to confirm presence of both plasmids. To assess interaction strength, yeast was plated onto SD-L-W-H with differing concentrations of the HIS3 inhibitor 3-aminotriazole (3-AT). These plates were then incubated for 3 days before assessing for presence or absence of growth, to perform a semi-quantitative yeast two-hybrid assay as in van Nues and Beggs (van Nues and Beggs, Genetics (2000) 157: 1451-1467). The same yeast transformation was used for each interaction study. Different colonies on the same yeast transformation plate were considered independent biological replicates (as for E. coli). Two biological replicates (top and bottom row for each interaction) were spotted from different liquid culture concentrations (0.5 and 0.1 OD). Each interaction experiment was performed at least twice.
(§5) Interactions were only observed between EPYC1 and chimeric 1AAt with the two α-helices from the C. reinhardtii SSU (FIG. 3C). The S1Cr 1AAt with the S1Cr α-helices alone produced a minimal interaction (i.e., on 0 mM 3-AT), which was strengthened by the incorporation of the β-sheets and the βA-βB loop from S1Cr.

[3] = biological target: T3, 1AAtMOD (β-sheets): A. thaliana SSU 1A with β-sheets replaced with C. reinhardtii β-sheets (Arabidopsis thaliana with parts of …); assay: yeast two-hybrid (FIG. 3C)
T3 construct: also called pGADT7_1AAtMOD(β-sheets)
T3 chain: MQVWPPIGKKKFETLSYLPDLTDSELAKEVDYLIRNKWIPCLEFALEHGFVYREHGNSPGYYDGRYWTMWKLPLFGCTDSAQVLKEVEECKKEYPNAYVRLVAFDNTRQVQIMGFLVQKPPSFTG
Experimental: as §3, §4, §5

[4] = biological target: T4, 1AAtMOD (loop): A. thaliana SSU 1A with βA-βB loop replaced with C. reinhardtii βA-βB loop (Arabidopsis thaliana with parts of …); assay: yeast two-hybrid (FIG. 3C)
T4 construct: also called pGADT7_1AAtMOD(loop)
T4 chain: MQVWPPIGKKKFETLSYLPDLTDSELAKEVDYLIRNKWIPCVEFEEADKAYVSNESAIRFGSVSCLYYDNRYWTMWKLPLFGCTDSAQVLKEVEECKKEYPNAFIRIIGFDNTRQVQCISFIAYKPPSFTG
Experimental: as §3, §4, §5

[5] = biological target: T5, 1AAtMOD (β-sheets and loop): A. thaliana SSU 1A with β-sheets and βA-βB loop replaced with those of C. … (Arabidopsis thaliana with parts of …); assay: yeast two-hybrid (FIG. 3C)
T5 construct: also called 1AAtMod (β-sheet and loop); pGADT7_1AAtMOD(β-sheets + loop)
T5 chain: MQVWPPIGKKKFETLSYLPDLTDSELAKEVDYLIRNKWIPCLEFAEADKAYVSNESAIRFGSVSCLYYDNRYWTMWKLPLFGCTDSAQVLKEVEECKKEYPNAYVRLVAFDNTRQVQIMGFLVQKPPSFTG
Experimental: as §3, §4, §5

[6] = biological target: T6, 1AAtMOD (α-helices and β-sheets): A. thaliana SSU 1A with α-helices and β-sheets replaced with those of C. … (Arabidopsis thaliana with parts of …); assay: yeast two-hybrid (FIG. 3C)
T6 construct: also called pGADT7_1AAtMOD(α-helices + β-sheets)
T6 chain: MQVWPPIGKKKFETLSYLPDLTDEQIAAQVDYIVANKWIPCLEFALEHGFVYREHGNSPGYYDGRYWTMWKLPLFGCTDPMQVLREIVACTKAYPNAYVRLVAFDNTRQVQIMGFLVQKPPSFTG
Experimental: as §3, §4, §5

[7] = biological target: A. thaliana Rubisco small subunit 1A (1AAt), mature (Arabidopsis thaliana, UniProt P10795 56-180); assay: yeast two-hybrid, growth on SD-L-W-H with 3-AT
Experimental: as §1, §2

[8] = biological target: the molecule itself; assay: yeast two-hybrid, EPYC1 in both the binding domain and the activation domain vector
Experimental: as §1, §2

binding result [1]: no binding
binding result [2]: binds
binding result [3]: no binding
binding result [4]: no binding
binding result [5]: no binding
binding result [6]: binds
binding result [7]: no binding
B1: Essential Pyrenoid Component 1 (EPYC1), full-length, C. reinhardtii (other)
chain: MATISSMRVGAASRVVVSGRVKTVKVAARGSWRESSTATVQASRASSATNRVSPTRSVLPANWRQELESLRNGNGSSSAASSAPAPARSSSASWRDAAPASSAPARSSSASKKAVTPSRSALPSNWKQELESLRSSSPAPASSAPAPARSSSASWRDAAPASSAPARSSSSKKAVTPSRSALPSNWKQELESLRSSSPAPASSAPAPARSSSASWRDAAPASSAPARSSSASKKAVTPSRSALPSNWKQELESLRSNSPAPASSAPAPARSSSASWRDAPASSSSSSADKAGTNPWTGKSKPEIKRTALPADWRKGL
notes: also called Cre10.g436550.t1.2; pGBKT7_EPYC1
binding result [8]: no binding

Source: patent US20220282268A1 (UNIVERSITY COURT OF THE UNIVERSITY OF EDINBURGH, published 2022)
